# Experimental data from paper PMC2719619, “Efficient, chemoselective synthesis of immunomicelles using single-domain antibodies with a C-terminal thioester” (BMC Biotechnology, 2009).
# B1: sdAb-aGST-MESNA (llama single-domain antibody against GST with a C-terminal MESNA thioester) (VHH)
# VHH: QVQLQDSGGGIVQPGGSLRLSCAGSGFSLDHYAIGWFRQAPGKRRELVASITSGGTIRYADSVKDRFTISRDNAKNRVYLQMNSLKPEDTAVYYCSARAKFSTSYDYWGQGTQVTVSS
# notes: llama single-domain antibody from a naive phage display library, clone C11 of vector pHENIX sdAb-α GST C11; A mix of species that differ in how much of the pelB leader is left (LC-MS: calcd. 19632, 19501, 18175, 18062 Da); One conserved disulfide bond; also called sdAb-α GST-MESNA; sdAb-GST; source: E. coli BL21 (DE3), pTXB1, periplasm; purified on a chitin column, cleaved from the intein with …
# Tests used:
# [1] = molecular target: T1, Glutathione-S-transferase from Schistosoma japonicum (Schistosoma japonicum, UniProt P08515 = GST); experiment: ELISA; conditions: both partners purified
# T1 construct: GST of Schistosoma japonicum (printed as 'glutathione-S from Schistosoma japonicum'); recombinant from the vector pGEX-4T-2 in the selection; GST from pGEX-4T-2 would carry some residues of the vector's linker at its C-terminus; also called GST
# [2] = molecular target: T1, Glutathione-S-transferase from …; experiment: SPR; GST immobilised on a CM5 chip by EDC/NHS (160 RU), 0-500 nM sdAb injected, 25°C, PBS with 0.05% Tween-20, 30 μL/min; steady state responses fitted to a one-site binding model; apparent; conditions: both partners purified
# T1 sequence (P08515 whole entry, looked up): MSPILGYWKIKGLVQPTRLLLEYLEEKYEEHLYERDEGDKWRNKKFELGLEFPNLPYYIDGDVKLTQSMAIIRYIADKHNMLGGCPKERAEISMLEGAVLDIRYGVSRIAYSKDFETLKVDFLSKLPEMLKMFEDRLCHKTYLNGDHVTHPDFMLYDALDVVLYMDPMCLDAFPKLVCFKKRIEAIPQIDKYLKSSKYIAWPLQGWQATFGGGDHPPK
binder,measurement,setting,value
B1,Kd,[1],77 nM
same,Kd,[2],116 nM
